In patent publication US20260000643A1, “Combination Of Curaxins And Immune Checkpoint Inhibitors For Treating Cancer” (Institute For Cancer Research d/b/a The Research Institute …, priority 2022, published 2026):

Test system: ADAR1 KO FLAG-ZBP1 MEFs
Assay: Cytokine-induced ZBP1-dependent cell death in ADAR1-deficient MEFs
Format: cell-based, murine
Conditions: cytokines 100 ng/mL, viability at 48 hours
From the text: Immortalized Zbp1^−/− stably reconstituted with FLAG-ZBP1 MEFs were transiently transfected with TrueGuide Synthetic sgRNA against mouse Adar1 (ThermoFisher Scientific, CRISPR162007 SGM) and TrueCut Cas9 Protein (ThermoFisher Scientific, A36499) by Lipofectamine CRISPRMAX Cas9 Transfection Reagent (ThermoFisher Scientific, CMAX00008). After two days, cells were harvest and examined ADAR1 protein level by western blot.

Molecule: TNFα
- ZBP1-dependent cell death in ADAR1-deficient MEFs: not

B1: IL-1α: inflammatory cytokine of the tested panel (protein, UniProt P01583 113-271, looked up)
Interleukin-1 alpha: SAPFSFLSNVKYNFMRIIKYEFILNDALNQSIIRANDQYLTAAALHNLDEAVKFDMGAYKSSKDDAKITVILRISKTQLYVTAQDEDQPVLLKEMPEIPKTITGSETNLLFFWETHGTKNYFTSVAHPNLFIATKQDYWVCLAGGPPSITDFQILENQA
- ZBP1-dependent cell death in ADAR1-deficient MEFs: not

B2: TRAIL: inflammatory cytokine of the tested panel (protein, UniProt P50591 1-281, looked up)
Tumor necrosis factor ligand …: MAMMEVQGGPSLGQTCVLIVIFTVLLQSLCVAVTYVYFTNELKQMQDKYSKSGIACFLKEDDSYWDPNDEESMNSPCWQVKWQLRQLVRKMILRTSEETISTVQEKQQNISPLVRERGPQRVAAHITGTRGRSNTLSSPNSKNEKALGRKINSWESSRSGHSFLSNLHLRNGELVIHEKGFYYIYSQTYFRFQEEIKENTKNDKQMVQYIYKYTSYPDPILLMKSARNSCWSKDAEYGLYSIYQGGIFELKENDRIFVSVTNEHLIDMDHEASFFGAFLVG
- ZBP1-dependent cell death in ADAR1-deficient MEFs: not

B3: IFNγ: inflammatory cytokine of the tested panel (protein, UniProt P01579 24-161, looked up)
Interferon gamma: QDPYVKEAENLKKYFNAGHSDVADNGTLFLGILKNWKEESDRKIMQSQIVSFYFKLFKNFKDDQSIQKSVETIKEDMNVKFFNSNKKKRDDFEKLTNYSVTDLNVQRKAIHELIQVMAELSPAAKTGKRKRSQMLFRG
- ZBP1-dependent cell death in ADAR1-deficient MEFs: induced ZBP1-dependent cell death
